No end group written: not given here. *: point of attachment. Biotin = O=C1N[C@H]2[C@H](CS[C@H]2CCCCC(=O)*)N1
B1: Biotin-GGSRQLL-OH (peptide)
peptide: Biotin-GGSRQLL-OH
SMILES: CC(C)C[C@H](NC(=O)[C@H](CC(C)C)NC(=O)[C@H](CCC(N)=O)NC(=O)[C@H](CCCNC(=N)N)NC(=O)[C@H](CO)NC(=O)CNC(=O)CNC(=O)CCCC[C@@H]1SC[C@@H]2NC(=O)N[C@@H]21)C(=O)O
B2: Biotin-GGSGGFQLL-OH (peptide)
peptide: Biotin-GGSGGFQLL-OH
SMILES: CC(C)C[C@H](NC(=O)[C@H](CC(C)C)NC(=O)[C@H](CCC(N)=O)NC(=O)[C@H](Cc1ccccc1)NC(=O)CNC(=O)CNC(=O)[C@H](CO)NC(=O)CNC(=O)CNC(=O)CCCC[C@@H]1SC[C@@H]2NC(=O)N[C@@H]21)C(=O)O
B3: Biotin-GGSGGGGFQLL-OH (peptide)
peptide: Biotin-GGSGGGGFQLL-OH
SMILES: CC(C)C[C@H](NC(=O)[C@H](CC(C)C)NC(=O)[C@H](CCC(N)=O)NC(=O)[C@H](Cc1ccccc1)NC(=O)CNC(=O)CNC(=O)CNC(=O)CNC(=O)[C@H](CO)NC(=O)CNC(=O)CNC(=O)CCCC[C@@H]1SC[C@@H]2NC(=O)N[C@@H]21)C(=O)O
B4: Biotin-GGSGGGGRQLL-OH (peptide)
peptide: Biotin-GGSGGGGRQLL-OH
SMILES: CC(C)C[C@H](NC(=O)[C@H](CC(C)C)NC(=O)[C@H](CCC(N)=O)NC(=O)[C@H](CCCNC(=N)N)NC(=O)CNC(=O)CNC(=O)CNC(=O)CNC(=O)[C@H](CO)NC(=O)CNC(=O)CNC(=O)CCCC[C@@H]1SC[C@@H]2NC(=O)N[C@@H]21)C(=O)O
B5: Biotin-RQLL-OH (peptide)
peptide: Biotin-RQLL-OH
SMILES: CC(C)C[C@H](NC(=O)[C@H](CC(C)C)NC(=O)[C@H](CCC(N)=O)NC(=O)[C@H](CCCNC(=N)N)NC(=O)CCCC[C@@H]1SC[C@@H]2NC(=O)N[C@@H]21)C(=O)O
B6: Biotin-GGRQLL-OH (peptide)
peptide: Biotin-GGRQLL-OH
SMILES: CC(C)C[C@H](NC(=O)[C@H](CC(C)C)NC(=O)[C@H](CCC(N)=O)NC(=O)[C@H](CCCNC(=N)N)NC(=O)CNC(=O)CNC(=O)CCCC[C@@H]1SC[C@@H]2NC(=O)N[C@@H]21)C(=O)O

target: T1, soluble ectodomain of sortilin-6his (Homo sapiens, UniProt Q99523, V650M); experiment: MST binding to soluble ectodomain of sortilin-6his; conditions: not given
T1 construct: the soluble ectodomain of sortilin-6his is measured by microscale thermophoresis (MST)
T1 sequence (Q99523 with tags, fused parts or gaps V650M): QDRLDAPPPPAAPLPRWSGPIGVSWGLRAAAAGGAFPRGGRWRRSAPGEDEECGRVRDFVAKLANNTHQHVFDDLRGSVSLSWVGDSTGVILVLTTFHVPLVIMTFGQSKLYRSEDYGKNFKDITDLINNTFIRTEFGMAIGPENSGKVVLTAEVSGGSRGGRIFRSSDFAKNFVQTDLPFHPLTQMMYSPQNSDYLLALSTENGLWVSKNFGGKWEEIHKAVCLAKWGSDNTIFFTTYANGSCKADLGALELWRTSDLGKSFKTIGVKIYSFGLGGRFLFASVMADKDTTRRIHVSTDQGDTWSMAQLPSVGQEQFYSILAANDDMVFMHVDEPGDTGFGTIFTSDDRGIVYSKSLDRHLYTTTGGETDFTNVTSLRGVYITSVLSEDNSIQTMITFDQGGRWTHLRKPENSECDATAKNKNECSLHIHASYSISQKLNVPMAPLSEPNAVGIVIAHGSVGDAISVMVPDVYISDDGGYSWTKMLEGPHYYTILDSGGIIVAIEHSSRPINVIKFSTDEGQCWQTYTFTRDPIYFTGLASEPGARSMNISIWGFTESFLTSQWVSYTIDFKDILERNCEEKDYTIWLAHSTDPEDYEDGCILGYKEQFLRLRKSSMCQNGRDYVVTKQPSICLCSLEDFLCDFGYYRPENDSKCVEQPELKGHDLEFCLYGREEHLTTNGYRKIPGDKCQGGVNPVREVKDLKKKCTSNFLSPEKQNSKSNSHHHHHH

`CC(C)(C)CC[C@H](NC(=O)c1ccc(Oc2cccc(OCCOCCOCCOCCOCCOCCNc3ccc([N+](=O)[O-])cc3[N+](=O)[O-])c2)nc1)C(=O)O` [BF004, (2S)-2-[[6-[3-[2-[2-[2-[2-[2-[2-(2,4-dinitroanilino)ethoxy]ethoxy]ethoxy]ethoxy]ethoxy]ethoxy]phenoxy]pyridine-3-carbonyl]amino]-5,5-dimethyl-hexanoic acid] showed a Kd of 1 to 10 nM.

same assay, conditions: Table 4; small molecule bifunctional compounds; MST; read-out: KD score, binding to sortilin (Kd)

First: CC(C)(C)CC[C@H](NC(=O)c1ccc(Oc2cccc(C(=O)NCCOCCOCCOCCOCCOCCOCCOCCOCCNC(=O)CCCC[C@@H]3SC[C@@H]4NC(=O)N[C@@H]43)c2)nc1)C(=O)O [BF018, (2S)-2-[[6-[3-[2-[2-[2-[2-[2-[2-[2-[2-[2-[5-[(3aS,4S,6aR)-2-oxo-1,3,3a,4,6,6a-hexahydrothieno[3,4-d]imidazol-4-yl]pentanoylamino]ethoxy]ethoxy]ethoxy]ethoxy]ethoxy]ethoxy]ethoxy]ethoxy]ethylcarbamoyl]phenoxy]pyridine-3-carbonyl]amino]-5,5-dimethyl-hexanoic acid]
Second: CC(C)(C)CC[C@H](NC(=O)c1ccc(Oc2cccc3c(C(=O)NCCCNC(=O)CCOCCOCCOCCOCCOCCNC(=O)CCCC[C@@H]4SC[C@@H]5NC(=O)N[C@@H]54)cccc23)nc1)C(=O)O [BF028, (2S)-2-[[6-[[5-[3-[3-[2-[2-[2-[2-[2-[5-[(3aS,4S,6aR)-2-oxo-1,3,3a,4,6,6a-hexahydrothieno[3,4-d]imidazol-4-yl]pentanoylamino]ethoxy]ethoxy]ethoxy]ethoxy]ethoxy]propanoylamino]propylcarbamoyl]-1-naphthyl]oxy]pyridine-3-carbonyl]amino]-5,5-dimethyl-hexanoic acid]
The Kd of the first is lower: 1 to 10 nM for the first, 10 to 250 nM for the second. The first binds more tightly here.

`CC(C)(C)CC[C@H](NC(=O)c1ccc(Oc2cccc(OCCOCCOCCNC(=O)CCCC[C@@H]3SC[C@@H]4NC(=O)N[C@@H]43)c2)nc1)C(=O)O` [BF022, (S)-5,5-dimethyl-2-(6-(3-(2-(2-(2-(5-((3aS,4S,6aR)-2-oxohexahydro-1H-thieno[3,4-d]imidazol-4-yl)pentanamido)ethoxy)ethoxy)ethoxy)phenoxy)nicotinamido) hexanoic acid] and `CC(C)(C)CC[C@H](NC(=O)c1ccc(Oc2cccc3cc(C(=O)NCCCNC(=O)CCCC[C@@H]4SC[C@@H]5NC(=O)N[C@@H]54)ccc23)nc1)C(=O)O` [BF024] fall in the same range of Kd: 10 to 250 nM for the first, 10 to 250 nM for the second.

tested on: HEK293 cells expressing full length sortilin receptor; experiment: Cellular uptake of NA650 in HEK293/sortilin cells; format: cell-based; conditions: Homo sapiens, HEK293; SEQ ID NO.: 147 (300 nM) and NA650 (100 nM), 3 h incubation, competitor titrated; read-out: IC50 of inhibition of degrader induced internalization of NA650
Procedure: Cellular uptake of NA650 was investigated in HEK293 cells expressing full length sortilin receptor (Petersen et. al.). Cells were seeded in poly-L-lysine coated 96-well plates (Perkin Elmer) (40K/well) in 50 μL culture medium (DMEM (Lonza)+10% FBS (SigmaAldrich)+1% penicillin-streptomycin (SigmaAldrich)+1% GlutaMAX (Gibco)+100 μg/mL Zeocin (Invitrogen)) and incubated overnight in cell incubator (37° C., humidified, 5% CO2).
Culture medium was replaced with assay medium (DMEM (Lonza)+10% fetal bovine serum (SigmaAldrich)+1% penicillin-streptomycin (SigmaAldrich)+1% GlutaMAX (Gibco)) containing NA650 (Invitrogen) (100 nM) (Thermo Fischer) and peptidic bifunctional compounds (9.8 nM to 10 μM). Cells were incubated for 3 h in cell incubator before they were washed in dPBS (Bionordika). The DyLight650 signal in the cell layer was detected using a fluorescence plate reader (BMG Labtech Clariostar).
Cellular uptake of NA650 was investigated in HEK293 cells expressing full length sortilin receptor using a methodology analogous to example 3.

Molecule `O=C(O)CCCC[C@@H]1SC[C@@H]2NC(=O)N[C@@H]21` [biotin, reference compound] has an IC50 of 56 nM.

same assay, conditions: SEQ ID NO.: 147 (300 nM) and NA650 (100 nM), 3 h incubation, competitor titrated; read-out: IC50 of inhibition of degrader induced internalization of NA650

`Cc1cccc(NC(=O)c2ccc(C(F)(F)F)cc2C(=O)O)n1` [AF38469, reference compound] gave an IC50 of 589 nM.

same assay, conditions: Table 6; NA650 (100 nM), 3 h, biotin warhead compounds

With `CC(C)(C)CC[C@H](NC(=O)c1ccc(Oc2cccc(C(=O)NCCOCCOCCOCCOCCOCCOCCOCCOCCNC(=O)CCCC[C@@H]3SC[C@@H]4NC(=O)N[C@@H]43)c2)nc1)C(=O)O` [BF018, (2S)-2-[[6-[3-[2-[2-[2-[2-[2-[2-[2-[2-[2-[5-[(3aS,4S,6aR)-2-oxo-1,3,3a,4,6,6a-hexahydrothieno[3,4-d]imidazol-4-yl]pentanoylamino]ethoxy]ethoxy]ethoxy]ethoxy]ethoxy]ethoxy]ethoxy]ethoxy]ethylcarbamoyl]phenoxy]pyridine-3-carbonyl]amino]-5,5-dimethyl-hexanoic acid] the “AUC score, target internalization” value was “++ (AUC > 100)”.
With `CC(C)(C)CC[C@H](NC(=O)c1ccc(Oc2cccc(OCCOCCOCCNC(=O)CCCC[C@@H]3SC[C@@H]4NC(=O)N[C@@H]43)c2)nc1)C(=O)O` [BF022, (S)-5,5-dimethyl-2-(6-(3-(2-(2-(2-(5-((3aS,4S,6aR)-2-oxohexahydro-1H-thieno[3,4-d]imidazol-4-yl)pentanamido)ethoxy)ethoxy)ethoxy)phenoxy)nicotinamido) hexanoic acid] the “AUC score, target internalization” value was “+ (AUC < 100)”.
In the case of `CC(C)(C)CC[C@H](NC(=O)c1ccc(Oc2cccc3cc(C(=O)NCCCNC(=O)CCCC[C@@H]4SC[C@@H]5NC(=O)N[C@@H]54)ccc23)nc1)C(=O)O` [BF024], the “AUC score, target internalization” value is reported as “+ (AUC < 100)”.
For `CC(C)(C)CC[C@H](NC(=O)c1ccc(Oc2cccc3c(C(=O)NCCCNC(=O)CCOCCOCCOCCOCCOCCNC(=O)CCCC[C@@H]4SC[C@@H]5NC(=O)N[C@@H]54)cccc23)nc1)C(=O)O` [BF028, (2S)-2-[[6-[[5-[3-[3-[2-[2-[2-[2-[2-[5-[(3aS,4S,6aR)-2-oxo-1,3,3a,4,6,6a-hexahydrothieno[3,4-d]imidazol-4-yl]pentanoylamino]ethoxy]ethoxy]ethoxy]ethoxy]ethoxy]propanoylamino]propylcarbamoyl]-1-naphthyl]oxy]pyridine-3-carbonyl]amino]-5,5-dimethyl-hexanoic acid], the “AUC score, target internalization” value was “++ (AUC > 100)”.

tested on: HEK293 cells expressing full length sortilin receptor; experiment: Cellular uptake of AlexaFluor488-anti-DNP antibody; format: cell-based; conditions: 3 h incubation, 1.9 nM to 2 μM, AlexaFluor488-anti-DNP antibody 100 nM
Source text: In this example, the small molecule degraders consist of a sortilin binder linked to warhead DNP to target anti-DNP antibodies (BF001 to BF016)
Cellular uptake of AlexaFluor488-anti-DNP antibody (Thermo Fisher) was investigated in HEK293 cells expressing full length sortilin receptor in a methodology analogous to example 3.

For `CC(C)(C)CC[C@H](NC(=O)c1ccc(Oc2cccc(C(=O)NCCOCCOCCOCCOCCOCCNc3ccc([N+](=O)[O-])cc3[N+](=O)[O-])c2)nc1)C(=O)O` [BF011, (2S)-2-[[6-[3-[2-[2-[2-[2-[2-[2-(2,4-dinitroanilino)ethoxy]ethoxy]ethoxy]ethoxy]ethoxy]ethylcarbamoyl]phenoxy]pyridine-3-carbonyl]amino]-5,5-dimethyl-hexanoic acid], the “cell associated FI signal, response to concentration series (in words)” value was “bell-shaped response”.

same assay, conditions: Table 7; AlexaFluor488-anti-DNP antibody (100 nM), 3 h, DNP warhead compounds

With `CC(C)(C)CC[C@H](NC(=O)c1ccc(Oc2cccc(OCCOCCOCCOCCOCCOCCNc3ccc([N+](=O)[O-])cc3[N+](=O)[O-])c2)nc1)C(=O)O` [BF004, (2S)-2-[[6-[3-[2-[2-[2-[2-[2-[2-(2,4-dinitroanilino)ethoxy]ethoxy]ethoxy]ethoxy]ethoxy]ethoxy]phenoxy]pyridine-3-carbonyl]amino]-5,5-dimethyl-hexanoic acid] the “AUC score, target internalization” value was “+ (AUC < 10.000)”.
For `CC(C)(C)CC[C@H](NC(=O)c1ccc(Oc2cccc(C(=O)NCCOCCOCCOCCOCCOCCNc3ccc([N+](=O)[O-])cc3[N+](=O)[O-])c2)nc1)C(=O)O` [BF011, (2S)-2-[[6-[3-[2-[2-[2-[2-[2-[2-(2,4-dinitroanilino)ethoxy]ethoxy]ethoxy]ethoxy]ethoxy]ethylcarbamoyl]phenoxy]pyridine-3-carbonyl]amino]-5,5-dimethyl-hexanoic acid], the “AUC score, target internalization” value was “+ (AUC < 10.000)”.

target: T2, Sortilin-6His (Homo sapiens (Human), UniProt Q99523 78-755); experiment: MST on labelled sortilin-6his ectodomain; KD score: ++ <100 nM, + 100-2000 nM; conditions: not given
T2 construct: In MST it was labelled non-covalently with RED-tris-NTA; also called soluble ectodomain of sortilin-6his; fluorescent sortilin-6his
T2 sequence (Q99523 78-755 V650M limits assumed): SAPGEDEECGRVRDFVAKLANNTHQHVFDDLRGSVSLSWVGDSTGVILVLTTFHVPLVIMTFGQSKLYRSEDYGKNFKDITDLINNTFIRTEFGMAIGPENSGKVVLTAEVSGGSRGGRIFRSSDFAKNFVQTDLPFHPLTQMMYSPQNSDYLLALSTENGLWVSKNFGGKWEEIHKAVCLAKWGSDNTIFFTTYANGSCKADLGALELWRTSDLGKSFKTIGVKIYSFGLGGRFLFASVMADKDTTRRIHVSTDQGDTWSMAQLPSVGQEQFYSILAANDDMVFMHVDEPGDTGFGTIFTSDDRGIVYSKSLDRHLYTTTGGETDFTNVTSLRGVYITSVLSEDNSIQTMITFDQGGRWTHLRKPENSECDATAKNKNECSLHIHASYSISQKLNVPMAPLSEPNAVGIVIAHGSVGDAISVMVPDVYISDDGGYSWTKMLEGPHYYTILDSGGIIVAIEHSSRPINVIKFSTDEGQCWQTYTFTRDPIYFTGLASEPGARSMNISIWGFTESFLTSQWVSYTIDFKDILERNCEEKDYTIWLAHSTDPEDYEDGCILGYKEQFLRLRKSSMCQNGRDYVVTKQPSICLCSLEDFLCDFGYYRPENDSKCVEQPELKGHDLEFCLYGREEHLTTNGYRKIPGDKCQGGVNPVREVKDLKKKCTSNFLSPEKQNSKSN

Compared with B1, B2 is lower in KD: 100 to 2000 nM for the first, < 100 nM for the second.

B3 and B4 cannot be ordered by KD: < 100 nM for the first, < 100 nM for the second.

B5 and B6 cannot be ordered by KD: < 100 nM for the first, < 100 nM for the second.

target: T2, Sortilin-6His; experiment: MST on labelled sortilin-6his ectodomain; KD score: +++ <25 nM, ++ 25-250 nM, + 250-2500 nM, 0 >2500 nM; conditions: not given

First: LYENKPRRPYIL
Second: REAPRWDAPLRDPALRQLL
The KD of the first is higher: 25 to 250 nM for the first, < 25 nM for the second.

REAPRWDAPLRDPALFQLL and REAPRWDAPLRDPALRYLL cannot be ordered by KD: < 25 nM for the first, < 25 nM for the second.

Compared with REAPRWDAPLRDPALRYYL, WSGPIGVSWGLRAAAAGFQLL-OH [WSGPIGVSWGLRAAAAGFQLL-OH] is lower in KD: 25 to 250 nM for the first, < 25 nM for the second.

Compared with PYILKRQLYENKPRRPYIL, IQLL is higher in KD: < 25 nM for the first, 250 to 2500 nM for the second.

First: H-RYYL-OH [H-RYYL-OH]
Second: H-RYIL-OH [H-RYIL-OH]
The KD of the first is lower: 25 to 250 nM for the first, 250 to 2500 nM for the second.

LQLL and H-RYFL-OH [H-RYFL-OH] fall in the same range of KD: 250 to 2500 nM for the first, 250 to 2500 nM for the second.

First: H-RQYL-OH [H-RQYL-OH]
Second: APLRDPAPRQLL
The KD of the first is higher: 250 to 2500 nM for the first, 25 to 250 nM for the second.

First: GGSGGGGSGGGGSGGRQLL-OH [GGSGGGGSGGGGSGGRQLL-OH]
Second: REALRWDAPLRDPAPRQLL
The KD of the first is higher: 25 to 250 nM for the first, < 25 nM for the second.

Source: patent publication US20250345446A1 (Draupnir Bio ApS, priority 2022, published 2025)
